From the supplement of paper PMC7877785
± gives the uncertainty stated by the source.

Assay: self-splicing fitness, log relative to wild type (ln ratio); higher = more splicing; Tetrahymena group I intron in knt gene, E. coli kanamycin selection, DiMSum; sequences stand for … in CUCUCU…GGAGGGAAAAGUUAUCAGGCAUGCACCUGGUAGCUAGUCUUUAAACCAAUAGAUUGCAUCGGUUUAAAAGGCAAGACCGUCAAAUUGCGGGAAAGGGGUCAACAGCCGUUCAGUACCAAGUCUCAGGGGAAACUUUGAGAUGGCCUUGCAAAGGGUAUGGUAAUAAGCUGACGGACAUGGUCCUAACCACGCAGCCAAGUCCUAAGUCAACAGAUCUUCUGUUGAUAUGGAUGCAGUUCACAGACUAAAUGUCGGUCGGGGAAGAUGUAUUCUUCUCAUAAGAUAUAGUCGGACCUCUCCUUAAUGGGAGCUAGCGGAUGAAGUGAUGCAACACUGGAGCCGCUGGGAACUAAUUUGUAUGCGAAAGUAUAUUGAUUAGUUUUGGAGUACUCGUGGUCG
Method in brief: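 Colonies from six replicate transformations of E. coli BL21(DE3) were pooled and amplicon-sequenced on an Illumina HiSeq 2500. The library placed an intron with all eight P1ex-region nucleotides randomised inside the knt kanamycin-resistance gene on pET-22b(+), and cells grew overnight at 37°C or 30°C on LB agar with or without 25 μg/mL kanamycin (plus 100 μg/mL carbenicillin, 50 μM IPTG, 0.2% rhamnose). Fitness is the DiMSum error-weighted combination of wild-type-normalised replicate fold changes, kanamycin versus none.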

AUAUAGCAAUAUUACGUACG
self-splicing fitness (ln) (30 °C): -2.49 ± 0.2 | self-splicing fitness (ln) (37 °C): -0.317 ± 0.15

AUAUAGCAAUAUUACGUCGA
self-splicing fitness (ln) (30 °C): -2.07 ± 0.17 | self-splicing fitness (ln) (37 °C): -1.51 ± 0.2

AUAUAGCAAUAUUACGUGAG
self-splicing fitness (ln) (30 °C): -1.81 ± 0.063 | self-splicing fitness (ln) (37 °C): -0.565 ± 0.096

AUAUAGCAAUAUUACGUUCG
self-splicing fitness (ln) (30 °C): -1.57 ± 0.2 | self-splicing fitness (ln) (37 °C): -0.377 ± 0.27

AUAUAGCAAUAUUACGUUUU
self-splicing fitness (ln) (30 °C): -2.98 ± 0.22 | self-splicing fitness (ln) (37 °C): -1.82 ± 0.22

AUCAAGCAAUAUUACGAAAG
self-splicing fitness (ln) (30 °C): -3.67 ± 0.21 | self-splicing fitness (ln) (37 °C): -2.74 ± 0.25

AUCAAGCAAUAUUACGAACU
self-splicing fitness (ln) (30 °C): -0.00363 ± 0.11 | self-splicing fitness (ln) (37 °C): 0.0259 ± 0.11

AUCAAGCAAUAUUACGACGA
self-splicing fitness (ln) (30 °C): -1.26 ± 0.095 | self-splicing fitness (ln) (37 °C): -0.128 ± 0.11

AUCAAGCAAUAUUACGAGCU
self-splicing fitness (ln) (30 °C): -1.24 ± 0.084 | self-splicing fitness (ln) (37 °C): -0.596 ± 0.1

AUCAAGCAAUAUUACGAUGG
self-splicing fitness (ln) (30 °C): -3.43 ± 0.26 | self-splicing fitness (ln) (37 °C): -2.67 ± 0.2

AUCAAGCAAUAUUACGCAUU
self-splicing fitness (ln) (30 °C): -2.32 ± 0.12 | self-splicing fitness (ln) (37 °C): -1.69 ± 0.14

AUCAAGCAAUAUUACGCUGC
self-splicing fitness (ln) (30 °C): -2.4 ± 0.41 | self-splicing fitness (ln) (37 °C): -0.934 ± 0.33

AUCAAGCAAUAUUACGGAAU
self-splicing fitness (ln) (30 °C): -1.94 ± 0.071 | self-splicing fitness (ln) (37 °C): -1.03 ± 0.083

AUCAAGCAAUAUUACGGAGG
self-splicing fitness (ln) (30 °C): -2.43 ± 0.096 | self-splicing fitness (ln) (37 °C): -1.36 ± 0.13

AUCAAGCAAUAUUACGGAUG
self-splicing fitness (ln) (30 °C): -2.01 ± 0.079 | self-splicing fitness (ln) (37 °C): -0.664 ± 0.082

AUCAAGCAAUAUUACGGCGA
self-splicing fitness (ln) (30 °C): -0.555 ± 0.077 | self-splicing fitness (ln) (37 °C): 0.246 ± 0.1

AUCAAGCAAUAUUACGGCGG
self-splicing fitness (ln) (30 °C): -1.04 ± 0.066 | self-splicing fitness (ln) (37 °C): -0.788 ± 0.091

AUCAAGCAAUAUUACGGGUG
self-splicing fitness (ln) (30 °C): -1.4 ± 0.088 | self-splicing fitness (ln) (37 °C): -0.416 ± 0.087

AUCAAGCAAUAUUACGGUCU
self-splicing fitness (ln) (30 °C): -1.54 ± 0.11 | self-splicing fitness (ln) (37 °C): -0.196 ± 0.095

AUCAAGCAAUAUUACGUAUA
self-splicing fitness (ln) (30 °C): -2.76 ± 0.23 | self-splicing fitness (ln) (37 °C): -2.31 ± 0.19

AUCCAGCAAUAUUACGACCG
self-splicing fitness (ln) (30 °C): -1.43 ± 0.084 | self-splicing fitness (ln) (37 °C): -0.707 ± 0.12

AUCCAGCAAUAUUACGAGAA
self-splicing fitness (ln) (30 °C): -2.6 ± 0.24 | self-splicing fitness (ln) (37 °C): -1.22 ± 0.22

AUCCAGCAAUAUUACGAUGC
self-splicing fitness (ln) (30 °C): -2.01 ± 0.15 | self-splicing fitness (ln) (37 °C): -0.963 ± 0.17

AUCCAGCAAUAUUACGAUUG
self-splicing fitness (ln) (30 °C): -4.83 ± 0.34 | self-splicing fitness (ln) (37 °C): -3.03 ± 0.24

AUCCAGCAAUAUUACGCAUG
self-splicing fitness (ln) (30 °C): -3.68 ± 0.27 | self-splicing fitness (ln) (37 °C): -0.669 ± 0.13

AUCCAGCAAUAUUACGCCCC
self-splicing fitness (ln) (30 °C): -0.216 ± 0.11 | self-splicing fitness (ln) (37 °C): 0.691 ± 0.19

AUCCAGCAAUAUUACGCGCA
self-splicing fitness (ln) (30 °C): -0.994 ± 0.067 | self-splicing fitness (ln) (37 °C): -0.169 ± 0.081

AUCCAGCAAUAUUACGCUGA
self-splicing fitness (ln) (30 °C): -1.36 ± 0.097 | self-splicing fitness (ln) (37 °C): -1.22 ± 0.13

AUCCAGCAAUAUUACGGAAA
self-splicing fitness (ln) (30 °C): -1.07 ± 0.092 | self-splicing fitness (ln) (37 °C): -1.02 ± 0.084

AUCCAGCAAUAUUACGGAAU
self-splicing fitness (ln) (30 °C): -2.94 ± 0.13 | self-splicing fitness (ln) (37 °C): -1.91 ± 0.17

AUCCAGCAAUAUUACGGAGA
self-splicing fitness (ln) (30 °C): -2.43 ± 0.14 | self-splicing fitness (ln) (37 °C): -0.986 ± 0.12

AUCCAGCAAUAUUACGGAGU
self-splicing fitness (ln) (30 °C): -3.02 ± 0.098 | self-splicing fitness (ln) (37 °C): -1.99 ± 0.11

AUCCAGCAAUAUUACGGCCG
self-splicing fitness (ln) (30 °C): -1.22 ± 0.097 | self-splicing fitness (ln) (37 °C): -0.00834 ± 0.12
